# Laboratory results published in patent US5863889A, “ICAM-1/LFA-1 short-chain peptides and method of using same” (The University of Kansas, priority 1996, dated 1999).
# Entries after “also recorded” stand apart in the source; their conditions may differ.
# Assays:
# Molt3 cells = assay: Cell metabolic assay (MTT); format: cell-based
# Experimental: After taking the photographs in Example 3 (and in some instances no photographs were taken), cell metabolic activity was assessed by an MTT assay. A 37.5 μl portion of MTT dye (purchased from SIGMA of St. Louis, Mo.), i.e., 3-[4,5-dimethyl thiazole-2yl]-2, 5- diphenyl tetrazolium bromide; thiazolyl blue) was added to each well, and incubated with the cells at 37° C. for about six hours. After incubation, a 250 μl quantity of a MTT solubilization solution (of a type that may be purchased from either Fischer Scientific of St. Louis, Mo. or BCD Labs of Lawrence, Kans.) was added to each well, and incubated with the cells at room temperature overnight. In the morning, the spectrophotometric absorption of each plate was determined at 570 nm in a microplate ELISA reader manufactured by Cambridge Technologies of Water-town, Mass., in order to assess cell viability as an indicator of potential peptide toxicity.
# ICAM-1 = target: T1, ICAM-1 (Homo sapiens, UniProt P05362); assay: Conformation modulator assay: flow cytometry of FITC-labeled RB-1-88 binding to T-cells after pre-incubation with first peptide; format: cell-based; conditions: first peptide 4550 μM
# T1 construct: host or cells: Molt3 human T-cell leukemia line
# Experimental: The antibody binding assay of Example 2 was twice repeated at a peptide concentration of 4550 μM, each time substituting a 455 nmol quantity of synthetic peptide selected from the group consisting of ICAM-based peptide SC-3-111 (Sequence ID No. 10) and LFA-based peptide LJCRF-4 (Sequence ID No. 16) in respective assays. Following incubation for 30 minutes at 37° C. after introduction of the first peptides, both incubated culture were supplemented by an additional quantity of FITC-labeled RB-1-88 (Sequence ID No. 19) peptide in a quantity sufficient to provide a 1.90 μM concentration in the cell/PBS solution.
# Following addition of the RB-1-88 (Sequence ID No. 19) peptide, the mixture was incubated for 30 minutes at 4° C., washed three times with 500 μl PBS/BSA, resuspended in 500 μl PBS/BSA and immediately subjected to a flow cytometer analysis as before. Table 3 presents the results of this analysis, which are also depicted in FIGS. 8 (SC-3-111) and 9 (LJCRF-4).
# T1 sequence (P05362 28-532): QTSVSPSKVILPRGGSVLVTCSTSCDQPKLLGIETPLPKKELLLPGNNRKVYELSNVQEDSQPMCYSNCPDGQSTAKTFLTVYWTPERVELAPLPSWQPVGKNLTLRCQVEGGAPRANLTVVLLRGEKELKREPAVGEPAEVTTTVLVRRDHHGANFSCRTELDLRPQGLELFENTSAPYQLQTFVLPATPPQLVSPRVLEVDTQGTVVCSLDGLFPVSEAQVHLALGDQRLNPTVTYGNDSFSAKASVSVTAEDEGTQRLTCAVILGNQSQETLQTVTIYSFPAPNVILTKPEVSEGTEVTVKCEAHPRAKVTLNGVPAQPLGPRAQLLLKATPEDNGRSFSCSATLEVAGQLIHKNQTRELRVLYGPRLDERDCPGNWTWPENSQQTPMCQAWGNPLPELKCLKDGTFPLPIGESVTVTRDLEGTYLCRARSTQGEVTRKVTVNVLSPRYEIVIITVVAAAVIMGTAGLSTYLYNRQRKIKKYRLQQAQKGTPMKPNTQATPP
substance,measurement,setting,value
"SC-3-111: ICAM-1 based short-chain peptide, Sequence ID No. 10 (QTSVSPSKVI)",MTT % Viability,Molt3 cells; peptide 230 μM,93%
same,MTT % Viability,Molt3 cells; peptide 460 μM,95%
same,MTT % Viability,Molt3 cells; peptide 910 μM,89%
same,MTT % Viability,Molt3 cells; peptide 1820 μM,69%
same,FACS Analysis (RB-1-88 binding),"ICAM-1; then FITC-labeled RB-1-88 1.90 μM, shift vs control",-8%
same,negative blocking shift of RB-1-88 binding (FIG. 8),"ICAM-1; then RB-1-88 1.90 μM, called probably not significant",8%
same,effect on binding of labeled peptide (RB-1-88 / LJCRF-6) to T-cell ICAM-1,"ICAM-1; FIGS. 8, 9",substantially no T-cell binding enhancement; also recorded: no effect
